Test results as given in patent US20040077542A1 (University of Texas, published 2004).

Target: T1, GST-fusion protein of the second BIR (baculoviral IAP repeat) motif of XIAP (UniProt P98170 124-240)
T1 construct: also called recombinant IAP fragment; BIR2; not shown: glutathione S-transferase (GST) fusion partner; order of GST and BIR2 not
Test: GST pull-down, radiolabeled peptide on GST-BIR2 glutathione resin (Example 9)

T1 sequence (P98170 124-240): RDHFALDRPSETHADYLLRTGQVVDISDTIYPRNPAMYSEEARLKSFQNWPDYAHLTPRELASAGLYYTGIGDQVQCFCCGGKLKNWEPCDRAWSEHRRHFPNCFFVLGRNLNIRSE

binding result: no binding
B1: Smac-7R: NH2-KQAIPVA-COOH (peptide)
peptide: H-KQAIPVA-OH
notes: also called negative control Smac-7R
